According to the RNAGym collection of RNA variant scans (doi:10.1073/pnas.2313332121):
Variants at the floor of the assay were thinned out.

B1: TPR 5TU (parent)
chain: GGAUCUUCUCGAUCUAACAAAAAAGACAAAUCUGCCACAAAGCUUGAGAGCAUCUUCGGAUGCAGAGGCGGCAGCCUUCGGUGGCGCGAUAGCGCCAACGUUCUCAACUAUGACACGCAAAACGCGUGCUCCGUUGAAUGGAGUUUAUCAUG

Variants of: B1
Test: polymerase ribozyme fitness, log enrichment relative to wild type (log ratio); higher = more active; in vitro selection for triplet polymerase activity
Method in brief: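 Mutant libraries of each subunit of a heterodimeric triplet polymerase ribozyme were built by PCR and transcribed. Each library went through one round of in vitro selection in triplicate: annealing with biotinylated primer, partner subunit and triplets, frozen incubation at −7 °C, gel excision of extended constructs, streptavidin-bead capture and RT-PCR. Input and output libraries were Illumina-sequenced; only genotypes with ≥10 input reads and ≥1 read per output were kept. Fitness is log2(genotype enrichment/wild-type enrichment), using inverse-variance-weighted replicate averages.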

Row | Variant | polymerase ribozyme fitness (log ratio)
1 | C69U G84A A106C | -2.41
2 | G70C G88U A97C | ≤ -4.2
3 | A73G A89U | -0.161
4 | G70U U139G | -2.93
5 | C72U C87A A98U A138C | ≤ -4.2
6 | C72U G86C C105A C114U G140U | ≤ -4.2
7 | C72U G92A C116U U139G | -3.15
8 | G68A G86A C87G | ≤ -4.2
9 | C69G G86C A121C | ≤ -4.2
10 | G71C A91U G136C | ≤ -4.2
11 | C69U G128C U130C C132G U135A A138C | ≤ -4.2
12 | C69A G81U G84U | ≤ -4.2
13 | G68U C79A U102G A119G | ≤ -4.2
14 | G71A C99U | ≤ -4.2
15 | C69U C85G G141A | -2.66
16 | G70U C87A A115U C116A U151A | ≤ -4.2
17 | A73G C87G U146G | ≤ -4.2
18 | C72U C96A C105U C132U | -1.29
19 | C69A C87A A106C G140A | ≤ -4.2
20 | G70A A122U | -3.6
21 | A73G C96U A119U | -0.341
22 | G68C U78A | ≤ -4.2
23 | C69G C87A A91C G126A | ≤ -4.2
24 | C72G C85G | ≤ -4.2

Row | Variant | polymerase ribozyme fitness (log ratio)
25 | G68C C93G | ≤ -4.2
26 | G70U G84U C87U G100A | ≤ -4.2
27 | G68A C123U | -3.89
28 | C72U C96G U127C C131U G140U U151A | ≤ -4.2
29 | G68C A89G A120G A147U U148G | ≤ -4.2
30 | C69U C95U | -1.47
31 | C69U C96G C125U | -1.78
32 | C69U G136A A142U | -0.531
33 | G68U C85U U144A | -4.15
34 | G68A U139C | ≤ -4.2
35 | C69U A106C | -2.21
36 | G71A C87G C93A C95G | ≤ -4.2
37 | G70A U101C C103G C123U | ≤ -4.2
38 | G70C C76A C79U C87A | ≤ -4.2
39 | G70C G88U A91G C95A A119G U144C U148C | ≤ -4.2
40 | G70A G74A U101G U104C A147U | ≤ -4.2
41 | G68U C85G | ≤ -4.2
42 | C69U G70A C99A G100A | ≤ -4.2
43 | G68U | -3.71
44 | G68C | -3.92
45 | G71A C87A G92C | -3.04
46 | A73G C95U | -0.166
47 | A73G C114U | -2.66
48 | G71C G84A A119U | -2.68

Row | Variant | polymerase ribozyme fitness (log ratio)
49 | G71C C95U C132U G141A U146G | ≤ -4.2
50 | G70A A147U | -2.67
51 | C69A G83A A121C | -1.84
52 | A73C C87G G141C | ≤ -4.2
53 | G70C C87G C96G A107G U146G | ≤ -4.2
54 | G71U C72A A91G C116A A138U | ≤ -4.2
55 | G70U A73U A89G C95G G141U | ≤ -4.2
56 | C69A G83C U101G | ≤ -4.2
57 | G71U G86U C125A A138G | -3.99
58 | G68U C85A A110G C132G A137G G141C U151G | ≤ -4.2
59 | C72G A91C | ≤ -4.2
60 | G71U G141U | -3.55
61 | G71C C93U C95G C99G A115C | -3.95
62 | G71C C85U | -3.27
63 | C69A G143U | -3.34
64 | C72U C93U | -0.741
65 | G71C G83U G141A A147C C149A | ≤ -4.2
66 | G68C C103U | ≤ -4.2
67 | C72A C114A | ≤ -4.2
68 | C69U C76U A97U U109G G112C C125A | ≤ -4.2
69 | A73G C93U G141U | 0.326
70 | C69A C118U | -1.62
71 | C69A C118G | -2.21
72 | G68C A91C A106U U127A | ≤ -4.2

Row | Variant | polymerase ribozyme fitness (log ratio)
73 | C72U | -0.00972
74 | C72G | -3.79
75 | C72A | -3.87
76 | A73G C85A | -1.22
77 | G71U G84A | -2.59
78 | G70A G88C U144C | ≤ -4.2
79 | G70U C76A | -4.19
80 | G68A G88C A110C U135C | ≤ -4.2
81 | C69A C76U A98U C125U | -1.9
82 | G70A C79A C87G C99U C105U A142G | ≤ -4.2
83 | C72A G140U | ≤ -4.2
84 | G70A C96U | -2.89
85 | G70C C103G A120G U127C U134C | ≤ -4.2
86 | G70A A110G A142G | -4.14
87 | C69G C85A G94U | -1.01
88 | C69U G70C C93G C114A A150C | ≤ -4.2
89 | C72U C87U U101G G124C | -1.6
90 | C72G G86C | ≤ -4.2
91 | C72U C85G | -1.95
92 | G70C G92U | -3.01
93 | G68A C93U A98U G117U | ≤ -4.2
94 | G68A C75U C85G G136U U148A | ≤ -4.2
95 | C69A A73C G84U U109C C118A | ≤ -4.2
96 | A73C C96G C118U G143U | ≤ -4.2

Row | Variant | polymerase ribozyme fitness (log ratio)
97 | C69A G84A A89G U146C | -2.59
98 | A73C G81C A110G A121G | ≤ -4.2
99 | G71U G83U | -3.48
100 | G71U G83C | -2.74
101 | C72G G81U C87A C95U U104A | ≤ -4.2
102 | C72U C87U C105A | -3.79
103 | C72U A91U G92A U127G | ≤ -4.2
104 | G70A C87U A106G | -2.89
105 | C69A G71U C85G C103U G117C | -3.28
106 | C69G A119U | -1.72
107 | G68A U77A G81A U111A G126U | ≤ -4.2
108 | G68U C99U G117C G143A | ≤ -4.2
109 | C69U A119U | -1.57
110 | C69U G84C C132G G143A | ≤ -4.2
111 | G70C C75A U109G A137C | ≤ -4.2
112 | C69A U101G G126A | -0.681
113 | A73G A142C | -1.76
114 | G70A G88C C96G U134G | ≤ -4.2
115 | A73G C93U A110U | ≤ -4.2
116 | G68A C76A G86A U102C G124C G152A | ≤ -4.2
117 | G71U C108U | ≤ -4.2
118 | G71A C95U C132U | -4.11
119 | G70A A73U G133A U135G | ≤ -4.2
120 | C72U G143C | -3.23

Row | Variant | polymerase ribozyme fitness (log ratio)
121 | G68U G94C C95A A115U G136U | ≤ -4.2
122 | A73C A113C | ≤ -4.2
123 | C72A U78G C85U A97U G140C | ≤ -4.2
124 | C69A U139C G140A U148A | ≤ -4.2
125 | G70A G74C C125G U144G | ≤ -4.2
126 | G70A C76A C79G A91U | ≤ -4.2
127 | G68U C95U C96U A113C G124U | ≤ -4.2
128 | C69U C116G | 0.325
129 | C69A C79A A115U C118A | ≤ -4.2
130 | G71U A89U U135A | ≤ -4.2
131 | C69A U144C | -1.07
132 | A73G C79U C96U A142U | ≤ -4.2
133 | C69A G84A | -2.31
134 | G68A G92C | -4.16
135 | G71C C95A | ≤ -4.2
136 | G71U A120G U146C | -2.36
137 | C72U G126U C132A | -4.12
138 | C69A G117A | -0.631
139 | C69U C72U | -1.99
140 | A73G A106C U111A U144A | ≤ -4.2
141 | G68A C93G C129A U130A | ≤ -4.2
142 | G70U G136A | -1.86
143 | C69G U77C C87U G140U | ≤ -4.2
144 | G68C C85U | -3.93

Row | Variant | polymerase ribozyme fitness (log ratio)
145 | C69G C72U U134A | ≤ -4.2
146 | G71U G84U U101C G117U C123U | -4.15
147 | C72A G81U G83C C93U | ≤ -4.2
148 | A73G C87G U101G U139C | ≤ -4.2
149 | C69G C99A A115G | -3.71
150 | A73G C85U G88A A119U U134A G140C | ≤ -4.2
151 | A73C A107G | ≤ -4.2
152 | C72U C93G A106G A121U | -2.98
153 | C69G A73C U77C G84A C118U C131A U139G | ≤ -4.2
154 | G71U C116U | -2.4
155 | C69U U78A A97U G143C | ≤ -4.2
156 | C69U C118U | -1.4
157 | G71U A142C | ≤ -4.2
158 | G71C U82C | -2.48
159 | G70A G84U C116A | -4.13
160 | C72A U77A G88C C93G U111G A137U U139G | ≤ -4.2
161 | G70U A122C U144G | -2.06
162 | C69U G94C | -1.65
163 | C69A G140U | -3.21
164 | G71A A91U C95G A119U A121G C129A A147G | ≤ -4.2
165 | C69U G71U C87U A89C | -3.31
166 | G71A G94A | -2.94
167 | C69A A91C A122U A142C | ≤ -4.2
